Assay [1] has as its target T1, CD20 on stable transfectant line 293-CD20 (UniProt P11836 1-297).
T1 construct: whole, on cells; also called CD20 expressing 293 cells
T1 sequence (looked up): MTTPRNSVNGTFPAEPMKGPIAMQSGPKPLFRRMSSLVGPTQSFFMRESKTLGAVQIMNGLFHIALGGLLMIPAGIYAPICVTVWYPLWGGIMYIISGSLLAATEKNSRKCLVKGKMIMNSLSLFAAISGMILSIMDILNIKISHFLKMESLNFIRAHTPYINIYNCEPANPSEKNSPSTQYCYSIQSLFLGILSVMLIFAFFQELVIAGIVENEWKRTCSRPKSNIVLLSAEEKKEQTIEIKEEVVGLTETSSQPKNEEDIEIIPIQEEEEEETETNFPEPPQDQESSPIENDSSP
Kind of assay: flow cytometry on 293-CD20 cells, anti-His-PE or FMC63-PE. A general note: Flow cytometry measures light scatter and fluorescence of single cells or particles in a stream.

The target in assay [2] is T2, Human BCMA Protein, Fc Tag (R&D Systems, Cat#193-BC-050) (human, UniProt Q02223 1-54).
T2 construct: Bought; also called Human BCMA-Fc; not shown: Fc tag of the bought protein
T2 sequence (looked up): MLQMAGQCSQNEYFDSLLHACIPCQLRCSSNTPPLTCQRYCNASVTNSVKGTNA
The experiment in a line: ELISA, plate-bound BCMA-Fc, anti-His-HRP.

For assay [3], the target named is T3, Human Her2/ErbB2 Protein, Fc Tag (ACRO Biosystems, Cat# HE2-H5253) (human, UniProt P04626 23-652).
T3 construct: Bought; also called Her2-Fc; HER2-hFc; not shown: Fc tag of the bought protein
The experiment in a line: ELISA: protein on FMC63-coated plate, Her2-Fc titrated, anti-hIgGFc-HRP.

The target of assay [4] is T1, CD20 on stable transfectant line …. Kind of assay: flow cytometry on 293-CD20 cells, 200 µl fusion protein, anti-His-PE.
Assay [5] has the same target. Kind of assay: flow cytometry on 293-CD20 cells, 200 µl fusion protein, FMC63-PE.
For assay [6] the target is unchanged. The experiment in a line: flow cytometry on 293-CD20 cells, FMC63-PE.

From US10508143 (ALETA BIOTHERAPEUTICS, dated 2019) come the findings set out here.

B1: CD19-D1+2-Leu16 scFv (VH/VL) (scFv)
chain: PEEPLVVKVEEGDNAVLQCLKGTSDGPTQQLTWSRESPLKPFLKLSLGLPGLGIHMRPLAIWLFIFNVSQQMGGFYLCQPGPPSEKAWQPGWTVNVEGSGELFRWNVSDLGGLGCGLKNRSSEGPSSPSGKLMSPKLYVWAKDRPEIWEGEPPCLPPRDSLNQSLSQDLTMAPGSTLWLSCGVPPDSVSRGPLSWTHVHPKGPKSLLSLELKDDRPARDMWVMETGLLLPRATAQDAGKYYCHRGNLTMSFHLEITARPGGGGSGGGGSGGGGSGGGGSMAQVKLQESGAELVKPGASVKMSCKASGYTFTSYNMHWVKQTPGQGLEWIGAIYPGNGDTSYNQKFKGKATLTADKSSSTAYMQLSSLTSEDSADYYCARSNYYGSSYWFFDVWGQGTTVTVSSGGGGSGGGGSGGGGSDIELTQSPTILSASPGEKVTMTCRASSSVNYMDWYQKKPGSSPKPWIYATSNLASGVPARFSGSGSGTSYSLTISRVEAEDAATYYCQQWSFNPPTFGGGTKLEIKRAAAHHHHHH
notes: C-terminal His tag; also called construct #83; #83
Consider B1, for which, in assay [1], the binding result was “binds”.

B2: C11D5.3 scFv (VL/VH) (scFv)
scFv: DIVLTQSPPSLAMSLGKRATISCRASESVTILGSHLIHWYQQKPGQPPTLLIQLASNVQTGVPARFSGSGSRTDFTLTIDPVEEDDVAVYYCLQSRTIPRTFGGGTKLEIKGSTSGSGKPGSGEGSTKGQIQLVQSGPELKKPGETVKISCKASGYTFTDYSINWVKRAPGKGLKWMGWINTETREPAYAYDFRGRFAFSLETSASTAYLQINNLKYEDTATYFCALDYSYAMDYWGQGTSVTVSSGGGGSGGGGSGGGGSHHHHHH
notes: His-tagged; also called construct #89; #89
As for B2, the binding result in assay [2] is listed as “binds”.

B3: purified CD19 protein control (other, UniProt P15391 20-291, looked up)
chain: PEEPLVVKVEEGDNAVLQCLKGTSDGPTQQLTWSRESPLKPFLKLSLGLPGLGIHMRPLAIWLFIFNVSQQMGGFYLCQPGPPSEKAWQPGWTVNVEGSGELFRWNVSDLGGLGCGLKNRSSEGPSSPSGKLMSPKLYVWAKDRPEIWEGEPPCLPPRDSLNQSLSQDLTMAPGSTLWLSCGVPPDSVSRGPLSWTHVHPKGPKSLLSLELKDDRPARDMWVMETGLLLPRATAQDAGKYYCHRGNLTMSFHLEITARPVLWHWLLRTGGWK
In the case of B3, the binding result in assay [3] was “no binding”.

B4: CD19-D1+2-C11D5.3 scFv (VH/VL) (scFv)
chain: PEEPLVVKVEEGDNAVLQCLKGTSDGPTQQLTWSRESPLKPFLKLSLGLPGLGIHMRPLAIWLFIFNVSQQMGGFYLCQPGPPSEKAWQPGWTVNVEGSGELFRWNVSDLGGLGCGLKNRSSEGPSSPSGKLMSPKLYVWAKDRPEIWEGEPPCLPPRDSLNQSLSQDLTMAPGSTLWLSCGVPPDSVSRGPLSWTHVHPKGPKSLLSLELKDDRPARDMWVMETGLLLPRATAQDAGKYYCHRGNLTMSFHLEITARPGGGGSGGGGSGGGGSGGGGSQIQLVQSGPELKKPGETVKISCKASGYTFTDYSINWVKRAPGKGLKWMGWINTETREPAYAYDFRGRFAFSLETSASTAYLQINNLKYEDTATYFCALDYSYAMDYWGQGTSVTVSSGSTSGSGKPGSGEGSTKGDIVLTQSPPSLAMSLGKRATISCRASESVTILGSHLIHWYQQKPGQPPTLLIQLASNVQTGVPARFSGSGSRTDFTLTIDPVEEDDVAVYYCLQSRTIPRTFGGGTKLEIKGGGGSGGGGSGGGGSHHHHHH
notes: His-tagged; also called construct #92; #92
As to B4, the binding result in assay [2] is “binds”.

B5: CD19-D1+2-C11D5.3 scFv (VL/VH) (scFv)
chain: PEEPLVVKVEEGDNAVLQCLKGTSDGPTQQLTWSRESPLKPFLKLSLGLPGLGIHMRPLAIWLFIFNVSQQMGGFYLCQPGPPSEKAWQPGWTVNVEGSGELFRWNVSDLGGLGCGLKNRSSEGPSSPSGKLMSPKLYVWAKDRPEIWEGEPPCLPPRDSLNQSLSQDLTMAPGSTLWLSCGVPPDSVSRGPLSWTHVHPKGPKSLLSLELKDDRPARDMWVMETGLLLPRATAQDAGKYYCHRGNLTMSFHLEITARPGGGGSGGGGSGGGGSGGGGSDIVLTQSPPSLAMSLGKRATISCRASESVTILGSHLIHWYQQKPGQPPTLLIQLASNVQTGVPARFSGSGSRTDFTLTIDPVEEDDVAVYYCLQSRTIPRTFGGGTKLEIKGSTSGSGKPGSGEGSTKGQIQLVQSGPELKKPGETVKISCKASGYTFTDYSINWVKRAPGKGLKWMGWINTETREPAYAYDFRGRFAFSLETSASTAYLQINNLKYEDTATYFCALDYSYAMDYWGQGTSVTVSSGGGGSGGGGSGGGGSHHHHHH
notes: His-tagged; also called construct #91; #91
On to B5, for which, in assay [2], the binding result is on record as “binds”.

B6: C11D5.3 scFv (VH/VL) (scFv)
scFv: QIQLVQSGPELKKPGETVKISCKASGYTFTDYSINWVKRAPGKGLKWMGWINTETREPAYAYDFRGRFAFSLETSASTAYLQINNLKYEDTATYFCALDYSYAMDYWGQGTSVTVSSGSTSGSGKPGSGEGSTKGDIVLTQSPPSLAMSLGKRATISCRASESVTILGSHLIHWYQQKPGQPPTLLIQLASNVQTGVPARFSGSGSRTDFTLTIDPVEEDDVAVYYCLQSRTIPRTFGGGTKLEIKGGGGSGGGGSGGGGSHHHHHH
notes: His-tagged; also called construct #90; #90
As to B6, the binding result in assay [2] was “binds”.

B7: CD22-D123-Leu16 scFv (VH/VL) (scFv)
chain: DSSKWVFEHPETLYAWEGACVWIPCTYRALDGDLESFILFHNPEYNKNTSKFDGTRLYESTKDGKVPSEQKRVQFLGDKNKACTLSIHPVHLNDSGQLGLRMESKTEKWMERIHLNVSERPFPPHIQLPPEIQESQEVTLTCLLNFSCYGYPIQLQWLLEGVPMRQAAVTSTSLTIKSVFTRSELKFSPQWSHHGKIVTCQLQDADGKFLSNDTVQLNVKHTPKLEIKVTPSDAIVREGDSVTMTCEVSSSNPEYTTVSWLKDGTSLKKQNTFTLNLREVTKDQSGKYCCQVSNDVGPGRSEEVFLQVQYAPEGGGGSGGGGSGGGGSGGGGSEVQLQQSGAELVKPGASVKMSCKASGYTFTSYNMHWVKQTPGQGLEWIGAIYPGNGDTSYNQKFKGKATLTADKSSSTAYMQLSSLTSEDSADYYCARSNYYGSSYWFFDVWGAGTTVTVSSGSTSGGGSGGGSGGGGSSDIVLTQSPAILSASPGEKVTMTCRASSSVNYMDWYQKKPGSSPKPWIYATSNLASGVPARFSGSGSGTSYSLTISRVEAEDAATYYCQQWSFNPPTFGGGTKLEIKHHHHHH
notes: First three domains of CD22 (further mutated) fused to Leu16 scFv, C-terminal His tag; also called construct #65; #65
As to B7, the binding result in assay [4] is reported as “binds”.

B8: CD19-ECD-Leu16 scFv (VH/VL) (scFv)
chain: PEEPLVVKVEEGDNAVLQCLKGTSDGPTQQLTWSRESPLKPFLKLSLGLPGLGIHMRPLAIWLFIFNVSQQMGGFYLCQPGPPSEKAWQPGWTVNVEGSGELFRWNVSDLGGLGCGLKNRSSEGPSSPSGKLMSPKLYVWAKDRPEIWEGEPPCLPPRDSLNQSLSQDLTMAPGSTLWLSCGVPPDSVSRGPLSWTHVHPKGPKSLLSLELKDDRPARDMWVMETGLLLPRATAQDAGKYYCHRGNLTMSFHLEITARPVLWHWLLRTGGWKGGGGSGGGGSGGGGSGGGGSEVQLQQSGAELVKPGASVKMSCKASGYTFTSYNMHWVKQTPGQGLEWIGAIYPGNGDTSYNQKFKGKATLTADKSSSTAYMQLSSLTSEDSADYYCARSNYYGSSYWFFDVWGAGTTVTVSSGSTSGGGSGGGSGGGGSSDIVLTQSPAILSASPGEKVTMTCRASSSVNYMDWYQKKPGSSPKPWIYATSNLASGVPARFSGSGSGTSYSLTISRVEAEDAATYYCQQWSFNPPTFGGGTKLEIKHHHHHH
notes: C-terminal His tag; also called construct #63; #63
Consider B8, for which, in assay [5], the binding result is reported as “binds”.

B9: CD19-D1+2-Leu16 scFv (VL/VH) (scFv)
chain: PEEPLVVKVEEGDNAVLQCLKGTSDGPTQQLTWSRESPLKPFLKLSLGLPGLGIHMRPLAIWLFIFNVSQQMGGFYLCQPGPPSEKAWQPGWTVNVEGSGELFRWNVSDLGGLGCGLKNRSSEGPSSPSGKLMSPKLYVWAKDRPEIWEGEPPCLPPRDSLNQSLSQDLTMAPGSTLWLSCGVPPDSVSRGPLSWTHVHPKGPKSLLSLELKDDRPARDMWVMETGLLLPRATAQDAGKYYCHRGNLTMSFHLEITARPGGGGSGGGGSGGGGSGGGGSDIELTQSPTILSASPGEKVTMTCRASSSVNYMDWYQKKPGSSPKPWIYATSNLASGVPARFSGSGSGTSYSLTISRVEAEDAATYYCQQWSFNPPTFGGGTKLEIKRGGGGSGGGGSGGGGSMAQVKLQESGAELVKPGASVKMSCKASGYTFTSYNMHWVKQTPGQGLEWIGAIYPGNGDTSYNQKFKGKATLTADKSSSTAYMQLSSLTSEDSADYYCARSNYYGSSYWFFDVWGQGTTVTVSSAAAHHHHHH
notes: C-terminal His tag; also called construct #85; #85
Consider B9, for which the binding result in assay [6] is “no binding (tested: 200 µl fusion protein)”.
